Results published in paper PMC4783044, “Stoichiometry and Change of the mRNA Closed-Loop Factors as Translating Ribosomes Transit from Initiation to Elongation” (PLoS ONE, 2016).
Read-outs that look alike come from different tables or passages of the source.

T1: eIF4E-Flag (yeast, UniProt P07260 1-213)
T1 sequence (looked up): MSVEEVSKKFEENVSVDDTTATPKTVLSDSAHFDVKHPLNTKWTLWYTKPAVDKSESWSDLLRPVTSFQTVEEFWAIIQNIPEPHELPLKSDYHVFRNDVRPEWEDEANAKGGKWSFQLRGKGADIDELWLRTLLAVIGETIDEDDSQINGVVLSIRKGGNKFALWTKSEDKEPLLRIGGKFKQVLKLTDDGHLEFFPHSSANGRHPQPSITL

T2: Flag-PAB1 (yeast, UniProt P04147 1-577)
T2 sequence (looked up): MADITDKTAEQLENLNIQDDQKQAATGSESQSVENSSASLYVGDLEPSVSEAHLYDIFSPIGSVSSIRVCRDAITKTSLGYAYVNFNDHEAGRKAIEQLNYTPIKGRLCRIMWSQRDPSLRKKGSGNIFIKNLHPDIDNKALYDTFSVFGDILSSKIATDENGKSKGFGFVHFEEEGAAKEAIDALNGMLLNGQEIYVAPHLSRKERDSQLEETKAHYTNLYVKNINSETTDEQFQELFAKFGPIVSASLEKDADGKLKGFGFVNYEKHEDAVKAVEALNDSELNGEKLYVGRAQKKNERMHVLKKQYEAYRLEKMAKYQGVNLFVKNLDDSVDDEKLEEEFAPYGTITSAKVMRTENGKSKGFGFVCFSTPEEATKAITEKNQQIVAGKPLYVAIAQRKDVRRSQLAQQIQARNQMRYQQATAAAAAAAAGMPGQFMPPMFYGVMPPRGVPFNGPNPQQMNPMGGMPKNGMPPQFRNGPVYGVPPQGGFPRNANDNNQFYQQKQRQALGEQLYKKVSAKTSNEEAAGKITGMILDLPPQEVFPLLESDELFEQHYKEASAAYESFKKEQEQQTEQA


Legend:
[1] = target: T1, eIF4E-Flag; test: co-IP + AUC; as a1, but material migrating from 90S to 200S (polysomal translating complexes); cells on glucose (elongation), or glucose depleted 10 min and glucose added back for 1 min (initiation)
[2] = target: T2, Flag-PAB1; test: as above
[3] = target: T1, eIF4E-Flag; test: co-IP + AUC; one-step anti-Flag bead purification from yeast crude extract (Tris pH 7.5, 0.15 M KCl, 2 mM MgCl2, 10% glycerol, 4°C), Flag peptide elution, then AU-FDS of the GFP fusion with AU-A230 or AU-A260 (20°C, 15,000 rpm); material migrating at 77S (monosomal translating complex); cycloheximide added to cells; cells on glucose (elongation), or glucose depleted 10 min and glucose added back for 1 min or 0 min (initiation)
[4] = target: T2, Flag-PAB1; test: as above
[5] = target: Flag-SBP1 (yeast) (UniProt P10080); test: as above
[6] = target: T1, eIF4E-Flag; test: co-IP + AUC; one-step anti-Flag bead purification from yeast crude extract (Tris pH 7.5, 0.15 M KCl, 2 mM MgCl2, 10% glycerol, 4°C), Flag peptide elution, then AU-FDS of the GFP fusion with AU-A230 or AU-A260 (20°C, 15,000 rpm); material migrating at 77S (monosomal translating complex); cycloheximide added to cells; cells on glucose (elongation), or glucose depleted 10 min and glucose added back for 1 min or 0 min …; conditions: partners not purified
[7] = target: T2, Flag-PAB1; test: as above; conditions: partners not purified

Flag-SBP1 (yeast), sequence (P10080 whole entry, the tested form may be a part): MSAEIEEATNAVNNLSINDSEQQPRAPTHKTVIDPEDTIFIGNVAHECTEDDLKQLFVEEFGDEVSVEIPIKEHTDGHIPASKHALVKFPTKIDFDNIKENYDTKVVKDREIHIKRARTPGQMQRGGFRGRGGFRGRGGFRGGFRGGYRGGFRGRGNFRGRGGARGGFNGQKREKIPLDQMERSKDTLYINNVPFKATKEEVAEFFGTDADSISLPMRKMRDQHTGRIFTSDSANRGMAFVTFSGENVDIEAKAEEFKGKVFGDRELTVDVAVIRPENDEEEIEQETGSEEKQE

| relative level in the polysomal translating complexes (90S to 200S), mRNA set at 100 (elongation) [1] [per 100 mRNA] | percent of the polyadenylated polysomes that contain SBP1 [2] [%] | relative level in the polysomal translating complexes (90S to 200S), mRNA set at 100 (elongation) [2] [per 100 mRNA] | relative level in the polysomal translating complexes (90S to 200S), mRNA set at 100 (initiation) [2] [per 100 mRNA] | relative level in the 77S monosomal translating complex, mRNA set at 100 (elongation) [3] [per 100 mRNA] | relative level in the 77S monosomal translating complex, mRNA set at 100 (elongation) [4] [per 100 mRNA] | relative level in the 77S monosomal translating complex, mRNA set at 100 (initiation) [4] [per 100 mRNA] | relative level in the 77S monosomal translating complex, mRNA set at 100 (elongation) [5] [per 100 mRNA] | relative level in the polysomal translating complexes (90S to 200S), mRNA set at 100 (elongation) ([1]; partners not purified) [per 100 mRNA] | relative level in the polysomal translating complexes (90S to 200S), mRNA set at 100 (initiation) ([1]; partners not purified) [per 100 mRNA] | relative level in the polysomal translating complexes (90S to 200S), mRNA set at 100 (elongation) ([2]; partners not purified) [per 100 mRNA] | relative level in the polysomal translating complexes (90S to 200S), mRNA set at 100 (initiation) ([2]; partners not purified) [per 100 mRNA] | relative level in the 77S monosomal translating complex, mRNA set at 100 (elongation) [6] [per 100 mRNA] | relative level in the 77S monosomal translating complex, mRNA set at 100 (initiation) [6] [per 100 mRNA] | relative level in the 77S monosomal translating complex, mRNA set at 100 (elongation) [7] [per 100 mRNA] | relative level in the 77S monosomal translating complex, mRNA set at 100 (initiation) [7] [per 100 mRNA] | Molecule |
| --- | --- | --- | --- | --- | --- | --- | --- | --- | --- | --- | --- | --- | --- | --- | --- | --- |
| < 0.3 | 8.6 | 8.3 | 11 | < 0.3 | 2.1 | 3.3 | – | – | – | – | – | – | – | – | – | SBP1-GFP (from UniProt P10080 1-294) (natural protein) |
| < 0.3 | – | < 0.3 | < 0.3 | 2.8 | 0.97 | 0.97 | < 0.3 | – | – | – | – | – | – | – | – | eRF1-GFP (from UniProt P12385 1-437) (natural protein) |
| – | – | – | – | – | – | – | < 0.3 | 61 | 56 | 9.4 | 13 | 15 | 15 | 3.9 | 6.2 | eIF4G2-GFP (natural protein, yeast, UniProt P39936 1-914, looked up, eIF4G2 of yeast, GFP fusion; The printed name puts GFP after the protein; also called TIF4632-GFP; source: yeast strain RP2384 (TIF4632-GFP::G418), in crude extract) MTDQRGPPPPHPQQANGYKKFPPHDNQYSGANNSQPNNHYNENLYSAREPHNNKQYQSKNGKYGTNKYNNRNNSQGNAQYYNNRFNNGYRLNNNDYNPAMLPGMQWPANYYAPQMYYIPQQMVPVASPPYTHQPLNTNPEPPSTPKTTKIEITTKTGERLNLKKFHEEKKASKGEEKNDGVEQKSKSGTPFEKEATPVLPANEAVKDTLTETSNEKSTSEAENTKRLFLEQVRLRKAAMERKKNGLISETEKKQETSNHDNTDTTKPNSVIESEPIKEAPKPTGEANEVVIDGKSGASVKTPQHVTGSVTKSVTFNEPENESSSQDVDELVKDDDTTEISDTTGGKTVNKSDDETINSVITTEENTVKETEPSTSDIEMPTVSQLLETLGKAQPISDIYEFAYPENVERPDIKYKKPSVKYTYGPTFLLQFKDKLKFRPDPAWVEAVSSKIVIPPHIARNKPKDSGRFGGDFRSPSMRGMDHTSSSRVSSKRRSKRMGDDRRSNRGYTSRKDREKAAEKAEEQAPKEEIAPLVPSANRWIPKSRVKKTEKKLAPDGKTELFDKEEVERKMKSLLNKLTLEMFDSISSEILDIANQSKWEDDGETLKIVIEQIFHKACDEPHWSSMYAQLCGKVVKDLDPNIKDKENEGKNGPKLVLHYLVARCHEEFEKGWADKLPAGEDGNPLEPEMMSDEYYIAAAAKRRGLGLVRFIGYLYCLNLLTGKMMFECFRRLMKDLNNDPSEETLESVIELLNTVGEQFEHDKFVTPQATLEGSVLLDNLFMLLQHIIDGGTISNRIKFKLIDVKELREIKHWNSAKKDAGPKTIQQIHQEEEQLRQKKNSQRSNSRFNNHNQSNSNRYSSNRRNMQNTQRDSFASTKTGSFRNNQRNARKVEEVSQAPRANMFDALMNNDGDSD |
